Laboratory results published in paper doi:10.1101/2022.07.20.500788.

T1: AtAGO10 D795A (wild-type PIWI loop) (Arabidopsis, UniProt Q9XGW1 1-988, D795A)
T1 sequence: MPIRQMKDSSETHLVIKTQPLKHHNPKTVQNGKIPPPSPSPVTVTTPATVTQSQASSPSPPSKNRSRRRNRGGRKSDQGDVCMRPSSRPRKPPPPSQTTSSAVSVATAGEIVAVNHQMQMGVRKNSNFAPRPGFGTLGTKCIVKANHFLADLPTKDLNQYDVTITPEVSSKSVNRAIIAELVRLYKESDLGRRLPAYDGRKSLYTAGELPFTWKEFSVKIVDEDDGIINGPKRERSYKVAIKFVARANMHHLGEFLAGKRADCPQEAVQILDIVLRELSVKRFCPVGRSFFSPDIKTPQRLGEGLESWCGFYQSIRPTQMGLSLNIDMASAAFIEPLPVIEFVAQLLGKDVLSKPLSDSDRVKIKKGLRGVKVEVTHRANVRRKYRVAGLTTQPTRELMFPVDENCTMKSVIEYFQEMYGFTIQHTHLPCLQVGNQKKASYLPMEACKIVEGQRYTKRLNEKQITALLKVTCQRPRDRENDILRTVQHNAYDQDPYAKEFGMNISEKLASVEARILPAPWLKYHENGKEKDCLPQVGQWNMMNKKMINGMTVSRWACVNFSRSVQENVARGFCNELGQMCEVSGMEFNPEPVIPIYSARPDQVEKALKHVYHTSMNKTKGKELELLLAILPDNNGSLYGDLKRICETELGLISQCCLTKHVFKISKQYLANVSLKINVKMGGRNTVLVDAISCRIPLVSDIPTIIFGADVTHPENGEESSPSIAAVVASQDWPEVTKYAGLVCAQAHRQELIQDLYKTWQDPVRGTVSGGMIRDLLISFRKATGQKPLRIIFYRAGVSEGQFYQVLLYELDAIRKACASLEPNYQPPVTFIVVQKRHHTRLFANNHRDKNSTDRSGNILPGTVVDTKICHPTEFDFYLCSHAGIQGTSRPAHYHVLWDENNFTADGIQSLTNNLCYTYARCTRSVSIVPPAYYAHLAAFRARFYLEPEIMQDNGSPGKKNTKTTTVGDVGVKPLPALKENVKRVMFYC

T2: AtAGO10+Hs-loop D795A (Arabidopsis, UniProt Q9XGW1 1-712+Q9UKV8:602-608+721-988, D795A;internal_change)
T2 sequence: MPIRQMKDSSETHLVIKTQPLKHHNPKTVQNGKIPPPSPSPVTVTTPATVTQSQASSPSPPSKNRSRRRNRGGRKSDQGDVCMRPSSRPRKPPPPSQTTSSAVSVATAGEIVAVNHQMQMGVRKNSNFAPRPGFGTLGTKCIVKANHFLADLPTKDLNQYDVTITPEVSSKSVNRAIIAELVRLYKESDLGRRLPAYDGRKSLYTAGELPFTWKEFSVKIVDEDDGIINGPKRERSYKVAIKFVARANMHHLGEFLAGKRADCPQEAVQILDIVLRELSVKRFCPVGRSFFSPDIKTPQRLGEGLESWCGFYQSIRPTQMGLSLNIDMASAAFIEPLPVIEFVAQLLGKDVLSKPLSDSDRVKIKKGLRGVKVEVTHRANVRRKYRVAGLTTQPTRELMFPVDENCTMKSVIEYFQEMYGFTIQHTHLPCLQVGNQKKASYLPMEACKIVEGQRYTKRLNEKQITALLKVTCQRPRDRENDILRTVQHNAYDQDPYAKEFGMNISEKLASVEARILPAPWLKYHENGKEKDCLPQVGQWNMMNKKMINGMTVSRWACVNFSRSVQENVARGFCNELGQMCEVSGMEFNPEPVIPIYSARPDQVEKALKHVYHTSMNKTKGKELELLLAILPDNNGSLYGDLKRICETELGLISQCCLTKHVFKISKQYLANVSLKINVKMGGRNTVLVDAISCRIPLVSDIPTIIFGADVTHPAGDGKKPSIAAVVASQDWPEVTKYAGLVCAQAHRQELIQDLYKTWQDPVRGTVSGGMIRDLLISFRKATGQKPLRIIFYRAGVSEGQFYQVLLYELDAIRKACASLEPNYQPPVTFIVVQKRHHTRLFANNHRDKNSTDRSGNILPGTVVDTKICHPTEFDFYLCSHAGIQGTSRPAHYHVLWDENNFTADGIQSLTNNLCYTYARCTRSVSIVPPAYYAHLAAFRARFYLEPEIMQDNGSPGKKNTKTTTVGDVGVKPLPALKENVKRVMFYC

B1: guide RNA / 2-21 target (mixed)
RNA 1: UGGAGUGUGACAAUGGUGUUU
RNA 2: AAACACCAUUGUCACACUCCAAA
B2: guide RNA / 2-8 target (mixed)
RNA 1: UGGAGUGUGACAAUGGUGUUU
RNA 2: AAAAAAAAAAAAAACACUCCAAA

What was measured:
Assay in all cases: filter binding
[1] = target: HsAGO2 (human, UniProt Q9UKV8 1-859)
[2] = target: T1, AtAGO10 D795A (wild-type PIWI loop)
[3] = target: HsAGO2+At-loop (human, UniProt Q9UKV8 1-601+Q9XGW1:713-720+609-859, internal_change)
[4] = target: T2, AtAGO10+Hs-loop D795A

| Binder | Kd [1] | Kd [2] | Kd [3] | Kd [4] |
| --- | --- | --- | --- | --- |
| B1 | 0.01 ± 0.001 nM | 0.04 ± 0.007 nM | 0.005 ± 0.001 nM | 0.095 ± 0.012 nM |
| B2 | 0.086 ± 0.005 nM | 1.33 ± 0.14 nM | 6.43 ± 0.24 nM | 0.38 ± 0.03 nM |
